Measurements as given in the supplement of paper PMC9732359.
± gives the uncertainty stated by the source.

Test: protein stability index of a GFP-peptide fusion (yeast GPS) (PSI 1-4); higher = more stable; sorted into four equal gates, so the index is relative within each strain
Summary of the method: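 Sequencing reads from sorted gates were used to score each peptide. The library consisted of tiled 17-residue yeast protein peptides fused downstream of GFP on a Cherry-expressing plasmid, pooled and carried in yeast. Mid-log cultures in leucine-free medium were split into four equal gates by GFP/Cherry ratio, and each gate's plasmids were PCR-amplified and Illumina-sequenced. The protein stability index adds up, over all gates, the read frequency multiplied by the gate number.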

Row | Sequence | protein stability index (pdr5∆) | protein stability index (doa10∆) | protein stability index (san1∆) | protein stability index (ubr1∆)
1 | MSLSVAEKSYLYDSLAS [RRP42] | 1.64 ± 0.18 | – | – | –
2 | EGNYRNLNNLKQENAYL [RPB8] | 3.31 ± 0.085 | 3.31 ± 0.084 | 3.27 ± 0.08 | 3.43 ± 0.068
3 | SESDLDEDKNFPRSRSR [ESC2] | 3.24 ± 0.08 | 2.98 ± 0.087 | 3.32 ± 0.059 | 3.28 ± 0.054
4 | VQDLGSAISVTNVEDPL [SIR2] | 1.97 ± 0.064 | 2.34 ± 0.069 | 2.47 ± 0.13 | 2.21 ± 0.054
5 | NNSALSNVNSDIYFKLK [RPT3] | 2.96 ± 0.12 | 3.12 ± 0.14 | 3.27 ± 0.14 | 3.25 ± 0.073
6 | TSMTGDANLLEEGETSR [SWI3] | 3.35 ± 0.097 | 3.2 ± 0.092 | 3.2 ± 0.037 | 3.3 ± 0.041
7 | NYLRQQCNYSSLVFNRK [PRE5] | 2.94 ± 0.11 | 2.71 ± 0.17 | – | 2.75 ± 0.088
8 | KFQLQNQLEDFILELEH [YIL149C/MLP2] | 1.95 ± 0.099 | 2.72 ± 0.081 | 2.11 ± 0.11 | 1.91 ± 0.086
9 | LPRYQELTKEEAMYKLQ [SMC3] | 3.18 ± 0.087 | 3.02 ± 0.12 | 3.43 ± 0.092 | 3.04 ± 0.073
10 | DPNNPVDFDGLDIKRVG [SNF12] | 3.32 ± 0.086 | 3.5 ± 0.087 | 3.32 ± 0.097 | 3.25 ± 0.063
11 | RALRRALTKFEASQVTE [RPL35A] | 2.56 ± 0.14 | – | 3.11 ± 0.097 | 3.19 ± 0.1
12 | ECLQAYIFFGPIYYQKL [RET1] | 2.65 ± 0.071 | 2.54 ± 0.077 | 2.24 ± 0.1 | 2.72 ± 0.05
13 | PHLLKQGLAMVEKYAPD [RRP42] | 2.35 ± 0.11 | 2.02 ± 0.13 | – | –
14 | IVEINNVSNTFNKTTNI [YJL041W/NSP1] | 2.9 ± 0.05 | 2.87 ± 0.048 | 2.71 ± 0.046 | 2.86 ± 0.038
15 | LVDTPSNNTAATADTTH [NUT1] | – | – | 3.21 ± 0.059 | 3.17 ± 0.082
16 | RLELAGQLISLLFEDLF [RET1] | 2.9 ± 0.12 | 2.65 ± 0.092 | 2.67 ± 0.082 | 2.91 ± 0.075
17 | VDKNGAHLYMLEPSGSY [PRE10] | 2.19 ± 0.064 | 2.04 ± 0.057 | 2.92 ± 0.063 | 2.52 ± 0.058
18 | GCVSYSPAALKQLASLK [YMR153W/NUP53] | 2.22 ± 0.07 | 1.7 ± 0.066 | 2.08 ± 0.12 | 2.62 ± 0.078
19 | SSKKSKRLDKVGKKKGG [LRP1] | 1.17 ± 0.068 | 2 ± 0.08 | 1.91 ± 0.12 | 1.43 ± 0.057
20 | PAMAMEDLKNFIFQIIE [SRB8] | 2.9 ± 0.074 | 2.62 ± 0.065 | 2.73 ± 0.078 | 1.71 ± 0.05
21 | DIDAVNGAVGKREGKTR [ISW2] | 3.47 ± 0.11 | 2.94 ± 0.13 | 2.94 ± 0.1 | 3.4 ± 0.071
22 | VNGPNVHPGANYLLKRN [RPO31] | 3.21 ± 0.068 | 3.29 ± 0.056 | 3.26 ± 0.044 | 3.21 ± 0.037
23 | GLKYALATGNWGEQKKA [RPB2] | 2.85 ± 0.075 | 2.58 ± 0.097 | 3.01 ± 0.082 | 2.8 ± 0.063
24 | GLRVRGQHTKTTGRRRA [RPS18A] | 2.33 ± 0.066 | 2.09 ± 0.052 | 2.21 ± 0.068 | 2.54 ± 0.037
25 | ALREMRKSDQQDVLKGS [POP1] | 3.56 ± 0.16 | 3.36 ± 0.17 | 3.43 ± 0.14 | 3.22 ± 0.11
26 | ILKTLERSICALGEFAD [YML031W/NDC1] | 3.04 ± 0.075 | 2.58 ± 0.053 | 3.05 ± 0.065 | 2.78 ± 0.05
27 | NVNKKALGQDTEKMEEQ [MED11] | 2.94 ± 0.055 | 2.88 ± 0.059 | 2.88 ± 0.034 | 3.04 ± 0.05
